Reference: publication PMC12748791 (Nature Communications, 2025)

Molecular target: the molecule itself
Assay: cryo-EM structure; full-length AE1 from DSP-cross-linked human erythrocyte ghost membranes in MSP-1E3D1/POPC nanodiscs; dimer configurations IF1/OF, OF/OF and IF1/IF2 separated by 3D classification

B1: Anion Exchanger 1 (AE1) (natural protein, human, UniProt P02730 1-911, looked up)
chain: MEELQDDYEDMMEENLEQEEYEDPDIPESQMEEPAAHDTEATATDYHTTSHPGTHKVYVELQELVMDEKNQELRWMEAARWVQLEENLGENGAWGRPHLSHLTFWSLLELRRVFTKGTVLLDLQETSLAGVANQLLDRFIFEDQIRPQDREELLRALLLKHSHAGELEALGGVKPAVLTRSGDPSQPLLPQHSSLETQLFCEQGDGGTEGHSPSGILEKIPPDSEATLVLVGRADFLEQPVLGFVRLQEAAELEAVELPVPIRFLFVLLGPEAPHIDYTQLGRAAATLMSERVFRIDAYMAQSRGELLHSLEGFLDCSLVLPPTDAPSEQALLSLVPVQRELLRRRYQSSPAKPDSSFYKGLDLNGGPDDPLQQTGQLFGGLVRDIRRRYPYYLSDITDAFSPQVLAAVIFIYFAALSPAITFGGLLGEKTRNQMGVSELLISTAVQGILFALLGAQPLLVVGFSGPLLVFEEAFFSFCETNGLEYIVGRVWIGFWLILLVVLVVAFEGSFLVRFISRYTQEIFSFLISLIFIYETFSKLIKIFQDHPLQKTYNYNVLMVPKPQGPLPNTALLSLVLMAGTFFFAMMLRKFKNSSYFPGKLRRVIGDFGVPISILIMVLVDFFIQDTYTQKLSVPDGFKVSNSSARGWVIHPLGLRSEFPIWMMFASALPALLVFILIFLESQITTLIVSKPERKMVKGSGFHLDLLLVVGMGGVAALFGMPWLSATTVRSVTHANALTVMGKASTPGAAAQIQEVKEQRISGLLVAVLVGLSILMEPILSRIPLAVLFGIFLYMGVTSLSGIQLFDRILLLFKPPKYHPDVPYVKRVKTWRMHLFTGIQIICLAVLWVVKSTPASLALPFVLILTVPLRRVLLPLIFRNVELQCLDADDAKATFDEEEGRDEYDEVAMPV
modifications: N-linked glycosylation at N642; lysines cross-linked with DSP (K539 and K851)
notes: Anion exchanger 1 (band 3), human, 911 residues: cytosolic domain 1-347, linker 348-370, transmembrane domain 371-911; the full-length protein was purified, only the transmembrane domain was resolved in the maps; Native protein from red blood cells; held in lipid nanodiscs (MSP-1E3D1, POPC) with PIP2 and POPC lipids at the dimer interface; also called band 3; SLC4A1
stoichiometry N: 2
